Assay results as given in patent US20220267447A1.

Key:
[1] = molecular target: JAK1-Y1034 phosphopeptide with an alanine substitution at the +3 position (Homo sapiens); assay: ITC
[2] = molecular target: JAK1 kinase domain (JH1) (Homo sapiens (Human)) (UniProt P23458); assay: cell-based or functional assay
JAK2 kinase domain (JH1) = assay: cell-based or functional assay
JAK3 kinase domain (JH1) = assay: cell-based or functional assay
TYK2 kinase domain (JH1) = assay: cell-based or functional assay
[3] = molecular target: JAK1 activation loop phosphopeptide (Tyr1034 phosphorylated) (Homo sapiens); assay: ITC

Sequence of JAK1 kinase domain (JH1) (Homo sapiens (Human)) (P23458 854-1154 limits assumed): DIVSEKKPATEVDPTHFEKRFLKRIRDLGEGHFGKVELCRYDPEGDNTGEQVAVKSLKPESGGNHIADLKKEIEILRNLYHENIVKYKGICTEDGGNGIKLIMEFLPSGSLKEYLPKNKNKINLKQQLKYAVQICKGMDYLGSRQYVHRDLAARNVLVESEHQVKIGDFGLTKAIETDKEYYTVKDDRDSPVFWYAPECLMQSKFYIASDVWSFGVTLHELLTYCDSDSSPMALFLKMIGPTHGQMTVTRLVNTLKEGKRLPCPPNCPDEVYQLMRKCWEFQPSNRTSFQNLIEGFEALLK
Sequence of human CIS lacking the N-terminal 34 residues (AN34), trimeric complex with elongin B and elongin C (Q9NSE2 35-258): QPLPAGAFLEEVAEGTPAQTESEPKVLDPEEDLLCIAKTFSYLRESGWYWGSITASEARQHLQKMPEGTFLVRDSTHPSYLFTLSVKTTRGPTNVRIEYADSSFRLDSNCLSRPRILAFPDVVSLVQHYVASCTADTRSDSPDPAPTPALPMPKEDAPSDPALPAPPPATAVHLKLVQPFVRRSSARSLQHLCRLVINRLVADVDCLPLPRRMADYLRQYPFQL
Sequence of human CIS lacking the N-terminal 34 residues (AN34), trimeric complex with elongin B and elongin C (Q15370 whole entry): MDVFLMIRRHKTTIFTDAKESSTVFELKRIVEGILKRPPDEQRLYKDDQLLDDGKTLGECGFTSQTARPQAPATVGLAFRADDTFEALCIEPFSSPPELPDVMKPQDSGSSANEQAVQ
Sequence of human CIS lacking the N-terminal 34 residues (AN34), trimeric complex with elongin B and elongin C (Q15369 17-112): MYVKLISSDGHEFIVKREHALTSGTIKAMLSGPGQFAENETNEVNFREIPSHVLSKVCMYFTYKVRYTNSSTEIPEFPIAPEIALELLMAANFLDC

With “human CIS lacking both the N-terminal region (residues 1-66) and the PEST motif (ANT/APEST), trimeric complex with elongin B and elongin C (from UniProt Q9NSE2 67-258; Q15370 1-118; Q15369 17-112)” the fold reduction of binding against the wild-type JAK1-Y1034 phosphopeptide [1] was 4 fold and the IC50, inhibition of the JAK1 kinase domain (JH1) in an in vitro kinase reaction [2] was 0.6 µM.

“hCIS-SH2-BC: recombinant trimeric complex of a human GST-CIS construct (hCIS-SH2) with Elongins B and C (from UniProt Q9NSE2 66-258; Q15370 1-118; Q15369 17-112)” was tested, and the IC50, inhibition of JAK1 phosphorylation of a substrate peptide (in vitro kinase assay) [2] was 0.12 µM, the efficiency of JAK1 JH1 kinase inhibition relative to SOCS1 [2] was 100 fold and the kinase inhibition relative to inhibition of JAK1 (in vitro kinase assay with JH1 domains) (JAK2 kinase domain (JH1)) was 20 fold. For the same substance, the kinase inhibition relative to inhibition of JAK1 (in vitro kinase assay with JH1 domains) (JAK3 kinase domain (JH1)) was 20 fold and the kinase inhibition relative to inhibition of JAK1 (in vitro kinase assay with JH1 domains) (TYK2 kinase domain (JH1)) was 20 fold.

“human CIS lacking the N-terminal 34 residues (AN34), trimeric complex with elongin B and elongin C (from UniProt Q9NSE2 35-258; Q15370 1-118; Q15369 17-112)” gave a Kd [3] of 2.2 to 10 µM.
